Tests used:
[1] = molecular target: T1, HA tagged hXBP1s (HA-hXBP1s), wild type, expressed in HEK293T cells
T1 chain: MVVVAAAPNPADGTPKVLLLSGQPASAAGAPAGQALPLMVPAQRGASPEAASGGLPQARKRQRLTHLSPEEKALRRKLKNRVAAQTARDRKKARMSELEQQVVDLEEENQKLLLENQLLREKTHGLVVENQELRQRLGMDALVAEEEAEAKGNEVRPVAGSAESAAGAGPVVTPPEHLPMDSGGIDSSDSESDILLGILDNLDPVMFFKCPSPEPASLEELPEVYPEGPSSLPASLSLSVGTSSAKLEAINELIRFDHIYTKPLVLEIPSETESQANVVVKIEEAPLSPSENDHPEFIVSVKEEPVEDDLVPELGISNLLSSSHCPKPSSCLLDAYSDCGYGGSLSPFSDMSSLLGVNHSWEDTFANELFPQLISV

[2] = molecular target: T2, Affinity-purified GST-tagged hXBP1s S288A mutant
T2 chain: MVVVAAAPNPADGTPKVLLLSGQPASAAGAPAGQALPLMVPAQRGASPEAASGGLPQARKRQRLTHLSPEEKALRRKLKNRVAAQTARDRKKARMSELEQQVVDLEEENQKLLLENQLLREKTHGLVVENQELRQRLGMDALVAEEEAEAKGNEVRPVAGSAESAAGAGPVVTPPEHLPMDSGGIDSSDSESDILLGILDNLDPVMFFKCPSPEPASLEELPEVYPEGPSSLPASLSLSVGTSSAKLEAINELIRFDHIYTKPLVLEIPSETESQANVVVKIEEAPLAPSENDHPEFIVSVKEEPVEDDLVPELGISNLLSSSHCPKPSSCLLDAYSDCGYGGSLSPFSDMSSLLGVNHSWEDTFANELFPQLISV

[3] = molecular target: T3, Affinity-purified GST-tagged wild type (WT) hXBP1s
T3 chain: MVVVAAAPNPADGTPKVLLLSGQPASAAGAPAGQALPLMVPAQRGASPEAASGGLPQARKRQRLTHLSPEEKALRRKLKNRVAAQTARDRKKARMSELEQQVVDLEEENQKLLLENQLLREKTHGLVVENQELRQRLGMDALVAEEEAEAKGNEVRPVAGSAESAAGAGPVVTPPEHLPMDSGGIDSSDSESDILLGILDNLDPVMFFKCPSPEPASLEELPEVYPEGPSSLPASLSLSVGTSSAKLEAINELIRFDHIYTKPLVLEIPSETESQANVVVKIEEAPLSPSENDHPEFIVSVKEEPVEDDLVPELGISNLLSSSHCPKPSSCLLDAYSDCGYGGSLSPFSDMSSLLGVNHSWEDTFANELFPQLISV

B1: FLAG-β-TrCP1, expressed in HEK293T cells (protein)
chain: MDPAEAVLQEKALKFMCSMPRSLWLGCSSLADSMPSLRCLYNPGTGALTAFQNSSEREDCNNGEPPRKIIPEKNSLRQTYNSCARLCLNQETVCLASTAMKTENCVAKTKLANGTSSMIVPKQRKLSASYEKEKELCVKYFEQWSESDQVEFVEHLISQMCHYQHGHINSYLKPMLQRDFITALPARGLDHIAENILSYLDAKSLCAAELVCKEWYRVTSDGMLWKKLIERMVRTDSLWRGLAERRGWGQYLFKNKPPDGNAPPNSFYRALYPKIIQDIETIESNWRCGRHSLQRIHCRSETSKGVYCLQYDDQKIVSGLRDNTIKIWDKNTLECKRILTGHTGSVLCLQYDERVIITGSSDSTVRVWDVNTGEMLNTLIHHCEAVLHLRFNNGMMVTCSKDRSIAVWDMASPTDITLRRVLVGHRAAVNVVDFDDKYIVSASGDRTIKVWNTSTCEFVRTLNGHKRGIACLQYRDRLVVSGSSDNTIRLWDIECGACLRVLEGHEELVRCIRFDNKRIVSGAYDGKIKVWDLVAALDPRAPAGTLCLRTLVEHSGRVFRLQFDEFQIVSSSHDDTILIWDFLNDPAAQAEPPRSPSRTYTYISR
- ubiquitination assay (conjugation of MYC-Ub to HA-hXBP1s, anti-HA immunoprecipitation probed with anti-MYC) [1]: ectopically expressed β-TrCP greatly promoted the conjugation of ubiquitin to HA-hXBP1s

B2: Active recombinant human JNK3 (Millipore) (protein)
chain: MSLHFLYYCSEPTLDVKIAFCQGFDKQVDVSYIAKHYNMSKSKVDNQFYSVEVGDSTFTVLKRYQNLKPIGSGAQGIVCAAYDAVLDRNVAIKKLSRPFQNQTHAKRAYRELVLMKCVNHKNIISLLNVFTPQKTLEEFQDVYLVMELMDANLCQVIQMELDHERMSYLLYQMLCGIKHLHSAGIIHRDLKPSNIVVKSDCTLKILDFGLARTAGTSFMMTPYVVTRYYRAPEVILGMGYKENVDIWSVGCIMGEMVRHKILFPGRDYIDQWNKVIEQLGTPCPEFMKKLQPTVRNYVENRPKYAGLTFPKLFPDSLFPADSEHNKLKASQARDLLSKMLVIDPAKRISVDDALQHPYINVWYDPAEVEAPPPQIYDKQLDEREHTIEEWKELIYKEVMNSEEKTKNGVVKGQPSPSGAAVNSSESLPPSSSVNDISSMSTDQTLASDTDSSLEASAGPLGCCR
- in vitro kinase assay, phosphorylation in the presence of ^32P (autoradiography) [2]: mutation of Ser288 to A abolished JNKs-mediated phosphorylation of hXBP1s
- in vitro kinase assay, phosphorylation in the presence of ^32P (autoradiography) [3]: JNK1, JNK2 or JNK3 was sufficient to directly phosphorylate hXBP1s

B3: Active recombinant human JNK1α1 (Millipore) (protein)
chain: MSRSKRDNNFYSVEIGDSTFTVLKRYQNLKPIGSGAQGIVCAAYDAILERNVAIKKLSRPFQNQTHAKRAYRELVLMKCVNHKNIIGLLNVFTPQKSLEEFQDVYIVMELMDANLCQVIQMELDHERMSYLLYQMLCGIKHLHSAGIIHRDLKPSNIVVKSDCTLKILDFGLARTAGTSFMMTPYVVTRYYRAPEVILGMGYKENVDLWSVGCIMGEMVCHKILFPGRDYIDQWNKVIEQLGTPCPEFMKKLQPTVRTYVENRPKYAGYSFEKLFPDVLFPADSEHNKLKASQARDLLSKMLVIDASKRISVDEALQHPYINVWYDPSEAEAPPPKIPDKQLDEREHTIEEWKELIYKEVMDLEERTKNGVIRGQPSPLAQVQQ
- in vitro kinase assay, phosphorylation in the presence of ^32P (autoradiography) [2]: mutation of Ser288 to A abolished JNKs-mediated phosphorylation of hXBP1s
- in vitro kinase assay, phosphorylation in the presence of ^32P (autoradiography) [3]: JNK1, JNK2 or JNK3 was sufficient to directly phosphorylate hXBP1s
